Measurements as given in IntAct's records for PubMed 20543817.
One block for each substance: values may come before it.

How the values were obtained:
Nlgn1, Q62765-2 [1] = molecular target: Nlgn1, Q62765-2
nlgnx_human NLGN4X [2] = molecular target: nlgnx_human NLGN4X (UniProt Q8N0W4)
Nlgn1, Q62765-2 [3] = molecular target: Nlgn1, Q62765-2; remark: listed apart in the source
nlgnx_human NLGN4X [4] = molecular target: nlgnx_human NLGN4X (UniProt Q8N0W4); remark: listed apart in the source
Nlgn1, Q62765-2 [5] = molecular target: Nlgn1, Q62765-2; remark: listed apart in the source
nlgnx_human NLGN4X [6] = molecular target: nlgnx_human NLGN4X (UniProt Q8N0W4); remark: listed apart in the source
Nlgn1, Q62765-2 [7] = molecular target: Nlgn1, Q62765-2; remark: listed apart in the source
nlgnx_human NLGN4X [8] = molecular target: nlgnx_human NLGN4X (UniProt Q8N0W4); remark: listed apart in the source

Chain of Nlgn1, Q62765-2 (Q62765 other isoform, or with tags, fused parts or gaps): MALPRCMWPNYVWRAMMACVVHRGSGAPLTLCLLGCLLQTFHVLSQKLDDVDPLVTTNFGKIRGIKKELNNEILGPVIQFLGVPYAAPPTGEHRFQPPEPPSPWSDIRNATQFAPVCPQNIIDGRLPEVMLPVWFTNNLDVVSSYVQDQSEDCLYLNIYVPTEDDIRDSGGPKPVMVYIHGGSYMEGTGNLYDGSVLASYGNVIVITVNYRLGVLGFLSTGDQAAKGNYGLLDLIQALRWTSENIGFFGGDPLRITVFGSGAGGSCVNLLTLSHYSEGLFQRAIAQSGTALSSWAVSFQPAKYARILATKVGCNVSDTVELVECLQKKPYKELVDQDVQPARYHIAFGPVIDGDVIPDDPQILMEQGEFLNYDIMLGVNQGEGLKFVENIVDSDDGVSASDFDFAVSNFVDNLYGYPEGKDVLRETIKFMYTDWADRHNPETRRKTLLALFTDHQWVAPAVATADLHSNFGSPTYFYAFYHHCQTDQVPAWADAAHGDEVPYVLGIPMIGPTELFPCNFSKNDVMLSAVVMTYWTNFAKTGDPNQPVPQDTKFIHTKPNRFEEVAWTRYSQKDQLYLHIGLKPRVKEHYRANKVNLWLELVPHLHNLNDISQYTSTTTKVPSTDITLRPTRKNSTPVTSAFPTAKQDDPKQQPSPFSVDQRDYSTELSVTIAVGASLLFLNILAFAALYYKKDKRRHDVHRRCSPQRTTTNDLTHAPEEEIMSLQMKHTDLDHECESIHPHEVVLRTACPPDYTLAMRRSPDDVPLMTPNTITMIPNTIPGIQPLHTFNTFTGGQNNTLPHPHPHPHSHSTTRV
Chain of Neurexin-1-beta (Rattus norvegicus (Rat)), Q63373-3 I206A (Q63373 other isoform, or with tags, fused parts or gaps I206A): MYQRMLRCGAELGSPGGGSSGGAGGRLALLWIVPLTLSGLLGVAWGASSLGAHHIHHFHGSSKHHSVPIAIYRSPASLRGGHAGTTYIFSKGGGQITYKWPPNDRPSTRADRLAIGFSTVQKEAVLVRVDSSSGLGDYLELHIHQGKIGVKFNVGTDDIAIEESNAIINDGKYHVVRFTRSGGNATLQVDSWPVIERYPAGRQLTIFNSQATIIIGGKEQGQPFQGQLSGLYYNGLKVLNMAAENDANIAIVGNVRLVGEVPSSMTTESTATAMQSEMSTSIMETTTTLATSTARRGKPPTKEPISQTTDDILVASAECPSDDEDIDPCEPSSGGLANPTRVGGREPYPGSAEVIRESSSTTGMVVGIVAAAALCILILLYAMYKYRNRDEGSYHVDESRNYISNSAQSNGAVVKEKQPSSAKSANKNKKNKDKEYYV
Chain of Neurexin-1-beta (Rattus norvegicus (Rat)), Q63373-3 N103A (Q63373 other isoform, or with tags, fused parts or gaps N103A): as the sequence (Q63373 other isoform, or with tags, fused parts or gaps I206A) above
Chain of Neurexin-1-beta (Rattus norvegicus (Rat)), Q63373-3 R109A (Q63373 other isoform, or with tags, fused parts or gaps R109A): as the sequence (Q63373 other isoform, or with tags, fused parts or gaps I206A) above
Chain of Neurexin-1-beta (Rattus norvegicus (Rat)), Q63373-3 R202A (Q63373 other isoform, or with tags, fused parts or gaps R202A): as the sequence (Q63373 other isoform, or with tags, fused parts or gaps I206A) above

effect of a mutation on the interaction (Nlgn1, Q62765-2 [1]): disrupting interaction
effect of a mutation on the interaction (nlgnx_human NLGN4X [2]): disrupting interaction
Substance: Neurexin-1-beta (Rattus norvegicus (Rat)), Q63373-3 I206A

effect of a mutation on the interaction (Nlgn1, Q62765-2 [3]): decreasing interaction
effect of a mutation on the interaction (nlgnx_human NLGN4X [4]): decreasing interaction
Substance: Neurexin-1-beta (Rattus norvegicus (Rat)), Q63373-3 N103A

effect of a mutation on the interaction (Nlgn1, Q62765-2 [5]): decreasing interaction
effect of a mutation on the interaction (nlgnx_human NLGN4X [6]): disrupting interaction
Substance: Neurexin-1-beta (Rattus norvegicus (Rat)), Q63373-3 R109A

effect of a mutation on the interaction (Nlgn1, Q62765-2 [7]): decreasing interaction
effect of a mutation on the interaction (nlgnx_human NLGN4X [8]): disrupting interaction
Substance: Neurexin-1-beta (Rattus norvegicus (Rat)), Q63373-3 R202A
